Drawing on the Human Domainome abundance scans (Beltran et al. 2025), this text covers abundance fitness for 148 variants.

First the molecules themselves.
B1: Myocardin-related transcription factor A, residues 341 to 383; numbered along this chain, Q969V6 (parent)
chain: GALPANLDDMKVAELKQELKLRSLPVSGTKTELIERLRAYQDQ
B2: Gamma-crystallin D, residues 90 to 170; numbered along this chain, P07320 (parent)
chain: IRLYEREDYRGQMIEFTEDCSCLQDRFRFNEIHSLNVLEGSWVLYELSNYRGRQYLLMPGDYRRYQDWGATNARVGSLRRV

± gives the uncertainty stated by the source.

Variants of B1 are the subject of the first data set. Put plainly: abundance fitness (aPCA) (normalised: wild type 0, dead -1); higher = more abundant; growth selection in yeast, the domain comes from the species named. The note with it: Homo sapiens.
As to GALPANLDDMKVAELKQELKLRSLPVSGTKTELIERLRAYQTQ [D42T], the abundance fitness was found to be 0.037 ± 0.12. In the case of GALPANLDDMKVAELKQELKLRSLPVSGTKTELIERLRAYQIQ [D42I], the abundance fitness is -0.538 ± 0.12. With GALPANLDDMKVAELKQELKLRSLPVSGTKTELIERLRAYQPQ [D42P], the abundance fitness is 0.059 ± 0.13. In the case of GALPANLDDMKVAELKQELKLRSLPVSGTKTELIERLRAYQRQ [D42R], the abundance fitness was -0.234 ± 0.076.

On to GALPANLDDMKVAELKQELKLRSLPVSGTKTELIERLRAYQWQ [D42W], for which the abundance fitness was -0.31 ± 0.12. On the same count and under the same terms, the same measure for GALPANLDDMKVAELKQELKLRSLPVSGTKTELIERLRAYQQQ [D42Q]: -0.087 ± 0.23; for GALPANLDDMKVAELKQELKLRSLPVSGTKTELIERLRAYQNQ [D42N]: 0.186 ± 0.41. Take GALPANLDDMKVAELKQELKLRSLPVSGTKTELIERLRAYQHQ [D42H]: the abundance fitness is -0.23 ± 0.093. Consider GALPANLDDMKVAELKQELKLRSLPVSGTKTELIERLRAYQSQ [D42S], for which the abundance fitness is -0.017 ± 0.11. On to GALPANLDDMKVAELKQELKLRSLPVSGTKTELIERLRAYQLQ [D42L], for which the abundance fitness was -0.081 ± 0.072. With GALPANLDDMKVAELKQELKLRSLPVSGTKTELIERLRAYQKQ [D42K], the abundance fitness was 0.022 ± 0.083. In the case of GALPANLDDMKVAELKQELKLRSLPVSGTKTELIERLRAYQDR [Q43R], the abundance fitness came out at 0.567 ± 0.21. On to GALPANLDDMKVAELKQELKLRSLPVSGTKTELIERLRAYQDI [Q43I], for which the abundance fitness turned out to be 0.042 ± 0.11. On the same count and under the same terms, in the case of GALPANLDDMKVAELKQELKLRSLPVSGTKTELIERLRAYQDS [Q43S] it was -0.029 ± 0.13; in that of GALPANLDDMKVAELKQELKLRSLPVSGTKTELIERLRAYQDW [Q43W], 0.208 ± 0.23. Still for that read-out and setting: in the case of GALPANLDDMKVAELKQELKLRSLPVSGTKTELIERLRAYQDV [Q43V] it was 0.334 ± 0.1. Regarding GALPANLDDMKVAELKQELKLRSLPVSGTKTELIERLRAYQDH [Q43H], the abundance fitness was -0.01 ± 0.25. Consider GALPANLDDMKVAELKQELKLRSLPVSGTKTELIERLRAYQDC [Q43C], for which the abundance fitness is -0.037 ± 0.1. Consider GALPANLDDMKVAELKQELKLRSLPVSGTKTELIERLRAYQDE [Q43E], for which the abundance fitness came to 0.357 ± 0.27. Turning to GALPANLDDMKVAELKQELKLRSLPVSGTKTELIERLRAYQDT [Q43T], the abundance fitness stood at 0.164 ± 0.1.

In a further data set the parent is B2. Described as above. The note with it: Homo sapiens.
Turning to R2T, the abundance fitness was -0.105 ± 0.19. Take R2V: the abundance fitness is -0.146 ± 0.3. For R2L, the abundance fitness was -0.162 ± 0.33. As to L3T, the abundance fitness was -0.239 ± 0.31. With L3R, the abundance fitness was -1.02 ± 0.38. The same measure, in the same setting: the same measure for L3G: -0.131 ± 0.18; for L3V: 0.076 ± 0.14.

As to L3S, the abundance fitness is 0.122 ± 0.21. For the variant L3P, the abundance fitness is -1 ± 0.46. L3F: the abundance fitness was -0.012 ± 0.43. Regarding F16S, the abundance fitness was found to be 0.035 ± 0.068. As for F16D, the abundance fitness is -0.163 ± 0.11.

With F16W, the abundance fitness amounted to 0.143 ± 0.09. Same read-out and setting: in the case of F16T it was -0.089 ± 0.12; in that of F16I, -0.077 ± 0.26; in that of F16N, 0.095 ± 0.18. For the variant F16H, the abundance fitness amounted to 0.052 ± 0.31. Still for that read-out and setting: in the case of F16P it was 0.109 ± 0.09; in that of F16E, -0.018 ± 0.095. For F16V, the abundance fitness came out at 0.034 ± 0.071. Regarding F16C, the abundance fitness was -0.029 ± 0.12. Still for that read-out and setting: in the case of F16M it was -0.115 ± 0.15; in that of F16Q, 0.033 ± 0.13; in that of F16K, -0.118 ± 0.1.

For F16A, the abundance fitness is -0.1 ± 0.081. As for F16R, the abundance fitness came out at 0.082 ± 0.063. On to F16Y, for which the abundance fitness was -0.606 ± 0.42. Same read-out and setting: in the case of F16L it was 0.08 ± 0.078; in that of F16G, 0.035 ± 0.052; in that of E15N, 0.206 ± 0.29.

For the variant E15F, the abundance fitness stood at 0.015 ± 0.19. As to E15S, the abundance fitness is -0.11 ± 0.086. E15K: the abundance fitness is 0.204 ± 0.17. E15R: the abundance fitness was -0.084 ± 0.059.

E15T: the abundance fitness was -0.027 ± 0.13. The same measure, in the same setting: the same measure for E15P: 0.038 ± 0.11; for E15I: -0.034 ± 0.23. Same read-out and setting: the same measure for E15D: -0.166 ± 0.14; for E15M: -0.013 ± 0.092; for E15V: -0.118 ± 0.076. With E15A, the abundance fitness is -0.065 ± 0.11. On to E15W, for which the abundance fitness is -0.093 ± 0.074.

In the case of E15C, the abundance fitness was determined as 0.008 ± 0.18. As to E15G, the abundance fitness was -0.08 ± 0.061.

E15L: the abundance fitness was -0.032 ± 0.075.

In the case of E15Y, the abundance fitness is -0.135 ± 0.2. On to I14F, for which the abundance fitness is 0.019 ± 0.26.

Regarding I14T, the abundance fitness is -0.018 ± 0.11. Regarding I14N, the abundance fitness was 0.056 ± 0.21. On to I14P, for which the abundance fitness is -0.825 ± 0.18.

On to I14M, for which the abundance fitness turned out to be 0.086 ± 0.12. Same read-out and setting: the same measure for I14D: 0.08 ± 0.18; for I14G: -0.092 ± 0.069; for I14C: -0.004 ± 0.1.

Regarding I14W, the abundance fitness was -0.09 ± 0.11. Same read-out and setting: the same measure for I14Y: -0.018 ± 0.16; for I14K: -0.092 ± 0.13; for I14V: -0.001 ± 0.09. Take I14A: the abundance fitness was -0.401 ± 0.045.

Take I14S: the abundance fitness amounted to 0.107 ± 0.1. Take I14L: the abundance fitness was -0.106 ± 0.087. Consider E7C, for which the abundance fitness was -0.333 ± 0.16. For E7Y, the abundance fitness is -0.498 ± 0.43.

E7R: the abundance fitness was -0.043 ± 0.065. Consider E7L, for which the abundance fitness was -0.031 ± 0.12.

Turning to E7I, the abundance fitness was -0.107 ± 0.34. E7A: the abundance fitness amounted to 0.001 ± 0.083. Consider E7M, for which the abundance fitness was -0.029 ± 0.17.

In the case of E7S, the abundance fitness is 0.069 ± 0.14. Consider E7K, for which the abundance fitness is 0.103 ± 0.22. Consider E7F, for which the abundance fitness was -0.148 ± 0.19. As for E7V, the abundance fitness was -0.04 ± 0.1. As to E7W, the abundance fitness worked out at 0.045 ± 0.097. As for E7Q, the abundance fitness was -0.016 ± 0.13.

Turning to E7G, the abundance fitness is -0.095 ± 0.083.

For the variant C20D, the abundance fitness came out at 0.108 ± 0.14. Take Y4N: the abundance fitness is 0.02 ± 0.11. Regarding Y4G, the abundance fitness is -0.683 ± 0.21. As for Y4D, the abundance fitness worked out at 0.074 ± 0.32. For the variant Y4R, the abundance fitness was -0.22 ± 0.11. Regarding Y4H, the abundance fitness came to 0.219 ± 0.44.

Y4C: the abundance fitness stood at 0.222 ± 0.35.

Consider Y4V, for which the abundance fitness is -0.82 ± 0.16. Turning to Y4W, the abundance fitness is -0.192 ± 0.15. In the case of Y4E, the abundance fitness was -0.881 ± 0.3. With Y4A, the abundance fitness was -0.472 ± 0.13.

With Y4L, the abundance fitness was -0.646 ± 0.17.

Regarding R6N, the abundance fitness was determined as 0.153 ± 0.24. Take R6S: the abundance fitness is -0.01 ± 0.087. Consider R6F, for which the abundance fitness was -0.262 ± 0.26. As to R6K, the abundance fitness is -0.027 ± 0.17.

Turning to R6D, the abundance fitness was -0.172 ± 0.23. On to R6T, for which the abundance fitness was determined as 0.005 ± 0.11.

R6A: the abundance fitness stood at 0.044 ± 0.094.

Take R6M: the abundance fitness was -0.042 ± 0.18. For R6Y, the abundance fitness is -0.092 ± 0.26. Regarding R6Q, the abundance fitness was -0.066 ± 0.14. As for R6H, the abundance fitness was -0.124 ± 0.27.

On to R6L, for which the abundance fitness was 0.012 ± 0.094. Turning to R6C, the abundance fitness is 0.069 ± 0.096. For the variant R6P, the abundance fitness is -1.02 ± 0.2. With R6E, the abundance fitness is -0.018 ± 0.13. R6V: the abundance fitness is -0.035 ± 0.1. Turning to R6G, the abundance fitness was -0.011 ± 0.07. As for R6I, the abundance fitness is -0.047 ± 0.21. On to E18D, for which the abundance fitness was -0.08 ± 0.15. Consider E18L, for which the abundance fitness is 0.001 ± 0.072. Regarding E18Q, the abundance fitness is 0.054 ± 0.17.

E18N: the abundance fitness came out at 0.11 ± 0.23. With E18A, the abundance fitness was -0.018 ± 0.057. Turning to E18I, the abundance fitness was -0.074 ± 0.1.

In the case of E18V, the abundance fitness was -0.004 ± 0.07. For E18S, the abundance fitness was determined as 0.04 ± 0.1. With E18M, the abundance fitness was -0.005 ± 0.15. As for E18W, the abundance fitness is -0.142 ± 0.096. Same read-out and setting: in the case of E18T it was -0.035 ± 0.088; in that of E18R, 0.048 ± 0.079. Still for that read-out and setting: the same measure for E18H: 0.027 ± 0.31; for E18C: 0.05 ± 0.1; for E18P: -0.584 ± 0.14. Regarding E18G, the abundance fitness is -0.088 ± 0.067. With M13Q, the abundance fitness is -0.115 ± 0.12. Turning to M13Y, the abundance fitness was -0.524 ± 0.27. Consider M13V, for which the abundance fitness stood at 0.04 ± 0.08. Regarding M13G, the abundance fitness was 0.017 ± 0.051.

Consider M13C, for which the abundance fitness was -0.176 ± 0.13.

For the variant M13T, the abundance fitness was -0.122 ± 0.094. As to M13I, the abundance fitness is -0.021 ± 0.15.
